Measured values published in the Human Domainome abundance scans (Beltran et al. 2025).
± gives the uncertainty stated by the source.

Experiment: abundance fitness (aPCA) (normalised: wild type 0, dead -1); higher = more abundant; growth selection in yeast, the domain comes from the species named
Conditions: Homo sapiens

Row | Substance | abundance fitness
1 | SAFB-like transcription modulator D64H, Q9NWH9 | -0.124 ± 0.058
2 | SAFB-like transcription modulator S50F, Q9NWH9 | -0.253 ± 0.052
3 | SAFB-like transcription modulator Q54N, Q9NWH9 | -0.037 ± 0.24
4 | SAFB-like transcription modulator L48K, Q9NWH9 | -0.371 ± 0.055
5 | BAG family molecular chaperone regulator 3 G58R, O95817 | -0.214 ± 0.08
6 | BAG family molecular chaperone regulator 3 R53K, O95817 | -0.424 ± 0.28
7 | SAFB-like transcription modulator D29I, Q9NWH9 | -1.09 ± 0.43
8 | SAFB-like transcription modulator E58F, Q9NWH9 | -0.105 ± 0.054
9 | SAFB-like transcription modulator L68T, Q9NWH9 | -0.135 ± 0.065
10 | SAFB-like transcription modulator L25D, Q9NWH9 | -0.665 ± 0.054
11 | SAFB-like transcription modulator E57H, Q9NWH9 | 0.063 ± 0.16
12 | BAG family molecular chaperone regulator 3 G15M, O95817 | 0.142 ± 0.17
13 | BAG family molecular chaperone regulator 3 F38V, O95817 | -0.092 ± 0.14
14 | BAG family molecular chaperone regulator 3 D51R, O95817 | -0.568 ± 0.17
15 | BAG family molecular chaperone regulator 3 P21L, O95817 | -0.112 ± 0.094
16 | BAG family molecular chaperone regulator 3 R53E, O95817 | -0.646 ± 0.14
17 | BAG family molecular chaperone regulator 3 N43V, O95817 | -0.418 ± 0.12
18 | SAFB-like transcription modulator T23Y, Q9NWH9 | -0.083 ± 0.033
19 | SAFB-like transcription modulator K31N, Q9NWH9 | -0.629 ± 0.075
20 | SAFB-like transcription modulator T46G, Q9NWH9 | -0.094 ± 0.06
21 | SAFB-like transcription modulator L48P, Q9NWH9 | -0.489 ± 0.048
22 | SAFB-like transcription modulator G60S, Q9NWH9 | -0.308 ± 0.041
23 | SAFB-like transcription modulator E67T, Q9NWH9 | -0.099 ± 0.049

Row | Substance | abundance fitness
24 | SAFB-like transcription modulator L68R, Q9NWH9 | -0.165 ± 0.067
25 | BAG family molecular chaperone regulator 3 R19S, O95817 | -0.006 ± 0.062
26 | SAFB-like transcription modulator L30E, Q9NWH9 | -0.6 ± 0.05
27 | SAFB-like transcription modulator P63E, Q9NWH9 | -0.337 ± 0.058
28 | SAFB-like transcription modulator V27M, Q9NWH9 | 0.158 ± 0.099
29 | SAFB-like transcription modulator E33F, Q9NWH9 | -0.645 ± 0.049
30 | BAG family molecular chaperone regulator 3 D20E, O95817 | -0.018 ± 0.1
31 | SAFB-like transcription modulator I49C, Q9NWH9 | -0.138 ± 0.056
32 | BAG family molecular chaperone regulator 3 F39V, O95817 | -0.754 ± 0.11
33 | BAG family molecular chaperone regulator 3 L22Q, O95817 | -0.226 ± 0.095
34 | SAFB-like transcription modulator S32K, Q9NWH9 | -0.246 ± 0.085
35 | BAG family molecular chaperone regulator 3 F38H, O95817 | -0.014 ± 0.15
36 | BAG family molecular chaperone regulator 3 P55Y, O95817 | -0.018 ± 0.29
37 | BAG family molecular chaperone regulator 3 G17W, O95817 | 0.329 ± 0.083
38 | BAG family molecular chaperone regulator 3 R45D, O95817 | -0.557 ± 0.32
39 | SAFB-like transcription modulator E33N, Q9NWH9 | -0.755 ± 0.1
40 | BAG family molecular chaperone regulator 3 D31F, O95817 | -1.13 ± 0.34
41 | BAG family molecular chaperone regulator 3 W26F, O95817 | 0.4 ± 0.21
42 | BAG family molecular chaperone regulator 3 F38E, O95817 | -0.356 ± 0.13
43 | BAG family molecular chaperone regulator 3 R53Y, O95817 | -0.788 ± 0.14
44 | SAFB-like transcription modulator D40G, Q9NWH9 | -0.277 ± 0.069
45 | BAG family molecular chaperone regulator 3 R53W, O95817 | -0.861 ± 0.14
46 | BAG family molecular chaperone regulator 3 S56N, O95817 | 0.103 ± 0.19

Row | Substance | abundance fitness
47 | BAG family molecular chaperone regulator 3 V40T, O95817 | -0.959 ± 0.24
48 | BAG family molecular chaperone regulator 3 Q33F, O95817 | -0.183 ± 0.27
49 | BAG family molecular chaperone regulator 3 G35T, O95817 | -0.006 ± 0.11
50 | BAG family molecular chaperone regulator 3 N16Y, O95817 | 0.117 ± 0.1
51 | BAG family molecular chaperone regulator 3 D20G, O95817 | 0.08 ± 0.06
52 | SAFB-like transcription modulator L25S, Q9NWH9 | -0.745 ± 0.077
53 | BAG family molecular chaperone regulator 3 P21A, O95817 | 0.383 ± 0.085
54 | BAG family molecular chaperone regulator 3 P23I, O95817 | -0.612 ± 0.22
55 | BAG family molecular chaperone regulator 3 H42S, O95817 | -0.678 ± 0.25
56 | SAFB-like transcription modulator R37H, Q9NWH9 | -0.648 ± 0.066
57 | SAFB-like transcription modulator L68P, Q9NWH9 | 0.022 ± 0.062
58 | SAFB-like transcription modulator D62K, Q9NWH9 | -0.531 ± 0.062
59 | SAFB-like transcription modulator T23V, Q9NWH9 | -0.049 ± 0.031
60 | BAG family molecular chaperone regulator 3 N50S, O95817 | -0.26 ± 0.085
61 | SAFB-like transcription modulator K53Q, Q9NWH9 | -0.159 ± 0.084
62 | SAFB-like transcription modulator E33H, Q9NWH9 | -0.512 ± 0.13
63 | SAFB-like transcription modulator R37T, Q9NWH9 | -0.751 ± 0.078
64 | BAG family molecular chaperone regulator 3 D51C, O95817 | -0.48 ± 0.22
65 | BAG family molecular chaperone regulator 3 A13T, O95817 | 0.169 ± 0.2
66 | BAG family molecular chaperone regulator 3 K29S, O95817 | -0.313 ± 0.11
67 | BAG family molecular chaperone regulator 3 P32E, O95817 | -0.285 ± 0.13
68 | BAG family molecular chaperone regulator 3 T34E, O95817 | -0.183 ± 0.19
69 | SAFB-like transcription modulator L30K, Q9NWH9 | -1.33 ± 0.27
